# Reference: patent publication US20250243281A1 (IMMUNITAS THERAPEUTICS, published 2025)
# Where two headings read alike, the source gives them in different places.
# T1: hCLEC2D (human, UniProt Q9UHP7 1-191)
# T1 construct: Overexpressed on HEK293 or K562 cells; the same id is used for endogenous CLEC2D on NALM6 and Raji cells; also called LLT1
# T1 sequence: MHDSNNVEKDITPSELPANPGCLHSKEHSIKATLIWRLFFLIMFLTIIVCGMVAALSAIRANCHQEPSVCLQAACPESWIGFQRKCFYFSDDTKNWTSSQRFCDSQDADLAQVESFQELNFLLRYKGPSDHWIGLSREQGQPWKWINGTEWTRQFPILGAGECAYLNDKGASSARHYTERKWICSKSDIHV
# T2: hKLRF1 (human, UniProt Q9NZS2 1-231)
# T2 construct: Overexpressed on HEK293 cells
# T2 sequence: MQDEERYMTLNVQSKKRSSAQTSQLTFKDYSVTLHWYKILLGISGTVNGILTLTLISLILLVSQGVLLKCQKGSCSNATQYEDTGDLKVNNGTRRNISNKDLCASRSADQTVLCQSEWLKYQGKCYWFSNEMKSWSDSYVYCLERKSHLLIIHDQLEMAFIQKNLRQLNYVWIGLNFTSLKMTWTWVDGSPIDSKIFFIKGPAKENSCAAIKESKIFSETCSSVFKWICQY
# T3: hKLRF2 (human, UniProt D3W0D1 1-207)
# T3 construct: Overexpressed on HEK293 cells
# T3 sequence: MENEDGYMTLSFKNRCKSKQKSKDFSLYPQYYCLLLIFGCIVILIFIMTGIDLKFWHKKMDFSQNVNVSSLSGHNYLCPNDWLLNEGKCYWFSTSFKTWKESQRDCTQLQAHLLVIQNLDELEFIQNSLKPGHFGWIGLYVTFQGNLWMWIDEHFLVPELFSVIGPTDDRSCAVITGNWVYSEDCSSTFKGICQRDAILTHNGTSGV
# T4: hCLEC12B (human, UniProt Q2HXU8 1-276)
# T4 construct: Overexpressed on HEK293 cells
# T4 sequence: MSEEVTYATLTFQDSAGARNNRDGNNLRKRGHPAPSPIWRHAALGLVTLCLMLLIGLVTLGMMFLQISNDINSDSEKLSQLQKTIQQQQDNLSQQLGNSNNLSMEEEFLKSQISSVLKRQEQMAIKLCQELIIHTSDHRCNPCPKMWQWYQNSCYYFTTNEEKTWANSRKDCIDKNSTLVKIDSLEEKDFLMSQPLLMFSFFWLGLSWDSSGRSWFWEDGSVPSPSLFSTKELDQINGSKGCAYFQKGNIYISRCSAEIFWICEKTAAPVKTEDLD
# Legend:
# hCLEC2D [1] = target: T1, hCLEC2D; test: flow cytometry; 100 nM antibody on HEK293 cells expressing CLEC2D; Alexa Fluor 647 anti-human IgG; MFI
# Procedure: (§1) For the antibody binding assay, all cell lines were washed in phosphate-buffered saline with 0.1% bovine serum albumin (PBSA) and seeded in a 96 well plate at a density of 4×10⁴ cells per well. Washed cells were resuspended in 100 nM of antibody (a saturating concentration to measure maximum binding on cells) and incubated at room temperature for 30 minutes. […] Cells were analyzed by flow cytometry with a Thermo Fisher Attune flow cytometer.
# (§2) Data were analyzed using FlowJo software. MFI for each sample was calculated and exported into Graphpad Prism.
# hKLRF1 [2] = target: T2, hKLRF1; test: flow cytometry; 100 nM antibody on HEK293 cells expressing KLRF1; Alexa Fluor 647 anti-human IgG; MFI
# Procedure: as §1, §2
# hKLRF2 [3] = target: T3, hKLRF2; test: flow cytometry; 100 nM antibody on HEK293 cells expressing KLRF2; Alexa Fluor 647 anti-human IgG; MFI
# Procedure: as §1, §2
# hKLRF1 [4] = target: T2, hKLRF1; test: flow cytometry, HEK293 transfectants, 100 nM antibody;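 note: antibody applied at a saturating level and incubated with cells for 30 min at room temperature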
# Procedure: as §1, §2
# hCLEC12B [5] = target: T4, hCLEC12B; test: as above
# Procedure: as §1, §2
# hKLRF2 [6] = target: T3, hKLRF2; test: as above
# Procedure: as §1, §2
# hCLEC2D [7] = target: T1, hCLEC2D; test: as above
# Procedure: as §1, §2
# hCLEC12B [8] = target: T4, hCLEC12B; test: flow cytometry; 100 nM antibody on HEK293 cells expressing CLEC12B; Alexa Fluor 647 anti-human IgG; MFI
# Procedure: as §1, §2
# hCLEC2D [9] = target: T1, hCLEC2D; test: flow cytometry; 100 nM antibody on HEK293 cells expressing CLEC2D; Alexa Fluor 647 anti-human IgG; MFI; remark: listed apart in the source
# Procedure: as §1, §2
# hKLRF1 [10] = target: T2, hKLRF1; test: flow cytometry; 100 nM antibody on HEK293 cells expressing KLRF1; Alexa Fluor 647 anti-human IgG; MFI; remark: listed apart in the source
# Procedure: as §1, §2
# hCLEC12B [11] = target: T4, hCLEC12B; test: flow cytometry; 100 nM antibody on HEK293 cells expressing CLEC12B; Alexa Fluor 647 anti-human IgG; MFI; remark: listed apart in the source
# Procedure: as §1, §2
# hKLRF2 [12] = target: T3, hKLRF2; test: flow cytometry; 100 nM antibody on HEK293 cells expressing KLRF2; Alexa Fluor 647 anti-human IgG; MFI; remark: listed apart in the source
# Procedure: as §1, §2
binding result (hCLEC2D [1]),binding result (hKLRF1 [2]),binding result (hKLRF2 [3]),% of CD161 binding (hKLRF1 [4]),% of CD161 binding (hCLEC12B [5]),% of CD161 binding (hKLRF2 [6]),% of CD161 binding (hCLEC2D [7]),binding result (hCLEC12B [8]),binding result (hCLEC2D [9]),binding result (hKLRF1 [10]),binding result (hCLEC12B [11]),binding result (hKLRF2 [12]),Binder
no binding (tested: 100 nM),no binding (tested: 100 nM),no binding (tested: 100 nM),0.073%,0.04%,0.036%,0.975%,no binding (tested: 100 nM),,,,,"Ab1 (antibody, human IgG1, V domains shown, IgG purified from yeast culture) VH: EVQLLESGGGLVQPGGSLRLSCAASGFAFSTYAMSWVRQAPGKGLEWVSAISAAGGTTYYADSVKGRFTISRDNSKNTLYLQMNSLRAEDTAVYYCAKPLDSSLWADFDLWGRGTLVTVSS VL: DIQMTQSPSSVSASVGDRVTITCRASQGIDSWLAWYQQKPGKAPKLLIYAASSLQSGVPSRFSGSGSGTDFTLTISSLQPEDFATYYCQQASVLPITFGGGTKVEIK"
no binding (tested: 100 nM),no binding (tested: 100 nM),no binding (tested: 100 nM),0.095%,0.074%,0.056%,1.11%,no binding (tested: 100 nM),,,,,"Ab4 (antibody, human IgG1, V domains shown, IgG purified from yeast culture) VH: EVQLLESGGGLVQPGGSLRLSCAASGFTFERYAMSWVRQAPGKGLEWVSAISAVGGTTKYADSVKGRFTISRDNSKNTLYLQMNSLRAEDTAVYYCAKPLDSSLWADFDAWGRGTLVTVSS VL: DIQLTQSPSSVSASVGDRVTITCRASQGISSWLAWYQQKPGKAPKLLIYAASGLQSGVPSRFSGSGSGTDFTLTISSLQPEDFATYYCQQASYLPITFGGGTKVEIK"
,,,0.078%,0.038%,0.051%,1.08%,,no binding (tested: 100 nM),no binding (tested: 100 nM),no binding (tested: 100 nM),no binding (tested: 100 nM),"Ab17 (antibody, human IgG1, V domains shown, IgG purified from yeast culture) VH: QVQLVESGGGLVKPGGSLRLSCAASGFTFSDYYMSWIRQAPGKGLEWVSYISPSGATIYYADSVKGRFTISRDNAKNSLYLQMNSLRAEDTAVYYCARSLMSTGTHLYFDLWGRGTLVTVSS VL: DIQLTQSPSSVSASVGDRVTITCRASQGISSWLAWYQQKPGKAPKLLIYAASSLQSGVPSRFSGSGSGTDFTLTISSLQPEDFATYYCQQVTSVPPYTFGGGTKVEIK"
,,,0.305%,0.26%,0.22%,0.97%,,no binding (tested: 100 nM),no binding (tested: 100 nM),no binding (tested: 100 nM),no binding (tested: 100 nM),"Ab19 (antibody, human IgG1, V domains shown, IgG purified from yeast culture) VH: QVQLVESGGGLVKPGGSLRLSCAASGFTFSQYYMSWIRQAPGKGLEWVSYISPSGATIYYADSVKGRFTISRDNAKNSLYLQMNSLRAEDTAVYYCARSLMATGTHLYFDLWGRGTLVTVSS VL: DIQLTQSPSSVSASVGDRVTITCRASQGISSWLAWYQQKPGKAPKLLIYAASALQSGVPSRFSGSGSGTDFTLTISSLQPEDFATYYCQQVTSAPPYTFGGGTKVEIK"
,,,0.132%,0.061%,0.054%,0.968%,,no binding (tested: 100 nM),no binding (tested: 100 nM),no binding (tested: 100 nM),no binding (tested: 100 nM),"Ab20 (antibody, human IgG1, V domains shown, IgG purified from yeast culture) VH: QVQLVESGGGLVQPGGSLRLSCAASGFTFSQYYMSWIRQAPGKGLEWVSYISPSGATIAYADSVKGRFTISRDNAKNSLYLQMNSLRAEDTAVYYCARSLMSTGTHLYFDLWGRGTLVTVSS VL: DIQLTQSPSSVSASVGDRVTITCRASQGISSWLAWYQQKPGKAPKLLIYAASVLQSGVPSRFSGSGSGTDFTLTISSLQPEDFATYYCQQVTSFLPYTFGGGTKVEIK"

# Further lines, the binder ahead of its results:
Binder,binding result (hCLEC2D [1]),binding result (hKLRF1 [2]),binding result (hKLRF2 [3]),% of CD161 binding (hKLRF1 [4]),% of CD161 binding (hCLEC12B [5]),% of CD161 binding (hKLRF2 [6]),% of CD161 binding (hCLEC2D [7]),binding result (hCLEC12B [8]),binding result (hCLEC2D [9]),binding result (hKLRF1 [10]),binding result (hCLEC12B [11]),binding result (hKLRF2 [12])
"Ab7 (antibody, human IgG1, V domains shown, IgG purified from yeast culture) VH: EVQLLESGGGLVQPGGSLRLSCAASGFTFGQYAMSWVRQAPGKGLEWVSAISAAGGTTYYADSVKGRFTISRDNSKNTLYLQMNSLRAEDTAVYYCAKPLDSSQWADFDLWGRGTLVTVSS VL: DIQLTQSPSSVSASVGDRVTITCRASQGISSWLAWYQQKPGKAPKLLIYAASFLQSGVPSRFSGSGSGTDFTLTISSLQPEDFATYYCQQASVLPITFGGGTKVEIK",no binding (tested: 100 nM),no binding (tested: 100 nM),no binding (tested: 100 nM),0.018%,0.011%,0.04%,1.09%,no binding (tested: 100 nM),,,,
"Ab5 (antibody, human IgG1, V domains shown, IgG purified from yeast culture) VH: EVQLLESGGGLVQPGGSLRLSCAASGFTFGQYAMSWVRQAPGKGLEWVSAISAVGGTTAYADSVKGRFTISRDNSKNTLYLQMNSLRAEDTAVYYCAKPLDSSLWADFQLWGRGTLVTVSS VL: DIQLTQSPSSVSASVGDRVTITCRASQDISSWLAWYQQKPGKAPKLLIYFASSLQSGVPSRFSGSGSGTDFTLTISSLQPEDFATYYCQQASKLPITFGGGTKVEIK",no binding (tested: 100 nM),no binding (tested: 100 nM),no binding (tested: 100 nM),0.059%,0.056%,0.035%,0.872%,no binding (tested: 100 nM),,,,
"Ab6 (antibody, human IgG1, V domains shown, IgG purified from yeast culture) VH: EVQLLESGGGLVQPGGSLRLSCAASGFTFGQYAMSWVRQAPGKGLEWVSAISAAGGTTYYADSVKGRFTISRDNSKNTLYLQMNSLRAEDTAVYYCAKPLDSSQWADFDLWGRGTLVTVSS VL: DIQLTQSPSSVSASVGDRVTITCRASQGISSWLAWYQQKPGKAPKLLIYAASSLQSGVPSRFSGSGSGTDFTLTINSLQPEDFATYYCQQAWVLPITFGGGTKVEIK",no binding (tested: 100 nM),no binding (tested: 100 nM),no binding (tested: 100 nM),0.036%,0.011%,0.029%,1.01%,no binding (tested: 100 nM),,,,
"Ab2 (antibody, human IgG1, V domains shown, IgG purified from yeast culture) VH: EVQLLESGGGLVQPGGSLRLSCAASGFAFSTYAMSWVRQAPGKGLEWVSAISGVGGTTYYADSVKGRFTISRDNSKNTLYLQMNSLRAEDTAVYYCAKPLDSSLWADFDLWGRGTLVTVSS VL: DIQLTQSPSSVSASVGDRVTITCRASQGISSWLAWYQQKPGKAPKLLIYYASSLQDGVPSRFSGSGSGTDFTLTISSLQPEDFATYYCQQASVLPITFGGGTKVEIK",no binding (tested: 100 nM),no binding (tested: 100 nM),no binding (tested: 100 nM),0.032%,0.057%,0.049%,0.863%,no binding (tested: 100 nM),,,,
